Consider 25 molecules from US20130130989A1 (AGENCY FOR SCIENCE TECHNOLOGY AND RESEARCH, published 2013).

Square brackets hold non-standard residues; d marks the D form. Ends that are not written are not given here. αMeF = C[C@](N)(Cc1ccccc1)C(=O)O; Ac5c = NC1(C(=O)O)CCCC1; Aib = CC(C)(N)C(=O)O

Data set [1] addresses eukaryotic translation initiation factor 4E (eIF4E), full length human (human) (UniProt P06730). In words: Kd estimated from FTS thermal shift.
The target is the same in data set [2]. As to the kind of experiment: fluorescence-based thermal shift assay (FTS), Sypro Red, 10 µM eIF4E, 100 µM peptide.
Data set [3] addresses T1, eukaryotic translation initiation factor 4E (eIF4E), full length human (human, UniProt P06730 2-217).
T1 construct: mature; read as P06730; also called eIF4E protein
The description is as above.
Protocol: The fluorescent dye Sypro Red was used to monitor thermal denaturation of eIF4E. Binding of the dye molecule to eIF4E, as it unfolds due to thermal denaturation, results in a sharp increase in the fluorescence intensity. The midpoint of this transition is termed the Tₘ. The thermal shift assay was conducted in the iCycler Real Time Detection System (Bio-Rad, Hercules, Calif.). The system contains a heating/cooling device for accurate temperature control and a charge-coupled device (CCD) detector for simultaneous imaging of the fluorescence changes in the wells of the microplate. […] The final protein concentration was 10 μM. Protein samples were incubated with derivative peptides at a concentration of a 100 μM. The plate was heated from 20 to 90° C. with a heating rate of 1° C./min.

The target of data set [4] is T1, eukaryotic translation initiation …. In words: Kd estimated from the FTS thermal shift of eIF4E (10 µM eIF4E, 100 µM peptide).
Protocol: A fluorescence based thermal shift assay was used to screen and rank the rationally designed eIF4E binding derivative peptides. The fluorescent dye Sypro Red was used to monitor thermal denaturation of eIF4E. Binding of the dye molecule to eIF4E, as it unfolds due to thermal denaturation, results in a sharp increase in the fluorescence intensity. The midpoint of this transition is termed the Tₘ. The thermal shift assay was conducted in the iCycler Real Time Detection System (Bio-Rad, Hercules, Calif.).
The target is the same in data set [5]. As to the kind of experiment: fluorescence-based thermal stability assay (FTS).
Data set [6] has the same target. As to the kind of experiment: ITC, peptide titrated into eIF4E, 20 °C, PBS, one-to-one binding model. More on the design: unit not given here. (In general: In ITC the heat of successive injections is recorded.)
Data set [7] has the same target. As to the kind of experiment: ITC, peptide titrated into eIF4E, 20 °C, PBS, one-to-one binding model; entropy calculated.
The target is the same in data set [8]. As to the kind of experiment: ITC, apparent Kd.
The target is the same in data set [9]. In words: FTS thermal shift assay.
Data set [10] shares this target. As to the kind of experiment: ITC, peptide titrated into eIF4E, 20° C.
Protocol: (§1) ITC experiments were conducted in a VP-ITC Unit (MicroCal, Northampton, Mass.). […] The buffer used for dialysis of the protein was used to dilute the peptides to their final working concentration. The protein buffer solution was matched to the peptide solution by the addition of DMSO in the case of the non TAT fused peptides. The titration experiments were performed at 20° C. with an initial 2 μl injection with duration of 4 s, fooled by 28 10 μl injections with a duration of 7.1 s. The spacing between each injection was 150 s. The stirring speed during the titration was 290 rpm. Data was analyzed using Microcal Origin software by fitting to a single-site binding model. Correction for the enthalpy of ligand dilution was carried out by subtracting a linear fit from the last three data points of the titration, after the interaction had reached saturation.
For data set [11] the target is unchanged. In words: ITC.
For data set [12] the target is unchanged. In words: ITC, peptide titrated into eIF4E, 20 °C, PBS, one-to-one binding model; entropy calculated. More on the design: unit not given here.
Data set [13] has the same target. As to the kind of experiment: ITC, peptide titrated into eIF4E, 20 °C, PBS, one-to-one binding model.
Protocol: as §1
Data set [14] shares this target. As to the kind of experiment: fluorescence-based thermal shift assay (FTS), Sypro Red, 10 µM eIF4E, 200 µM peptide (*).
Protocol: A fluorescence based thermal shift assay was used to screen and rank the rationally designed eIF4E binding derivative peptides. The fluorescent dye Sypro Red was used to monitor thermal denaturation of eIF4E. Binding of the dye molecule to eIF4E, as it unfolds due to thermal denaturation, results in a sharp increase in the fluorescence intensity. The midpoint of this transition is termed the Tₘ. The thermal shift assay was conducted in the iCycler Real Time Detection System (Bio-Rad, Hercules, Calif.). The system contains a heating/cooling device for accurate temperature control and a charge-coupled device (CCD) detector for simultaneous imaging of the fluorescence changes in the wells of the microplate.
The target is the same in data set [15]. As to the kind of experiment: Kd estimated from the FTS thermal shift of eIF4E (10 µM eIF4E, 200 µM peptide).
Data set [16] has the same target. In words: ITC, apparent Kd against the template peptide.
Protocol: as §1

T1 sequence (P06730 2-217): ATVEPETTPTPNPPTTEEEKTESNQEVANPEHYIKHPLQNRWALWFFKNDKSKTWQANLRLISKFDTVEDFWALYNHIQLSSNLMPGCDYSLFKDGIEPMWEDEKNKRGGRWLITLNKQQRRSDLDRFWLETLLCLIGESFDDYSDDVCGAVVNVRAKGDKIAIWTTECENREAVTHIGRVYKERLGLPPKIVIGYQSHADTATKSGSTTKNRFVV
eukaryotic translation initiation factor 4E (eIF4E), full length human (human), sequence (P06730 2-217): as above

Tr2_AIB3_A5C peptide (YDREFLL5FQF): the Kd in data set [1] was 1.45 µM. Also, in data set [2], the ΔT (°C) was 6.6 °C.

B1: Tr2_AIB4 peptide (peptide)
peptide: YDREFLLGF[Aib]F
modifications: not fully specified (C-terminus)
Turning to B1, the “ΔT (°C)” value in data set [3] is 1.52 °C. Moreover, the Kd in [4] was 25.1 µM.

B2: TAT peptide (YGRKKRRQRRR) (peptide)
peptide: YGRKKRRQRRR
notes: also called TAT tag
With B2, the binding result in data set [5] is recorded as “no binding”.

B3: TAT_eIF4G1_me5 peptide (YGRKKRRQRRRGTKKRYDRE*LL5FQF) (peptide)
peptide: YGRKKRRQRRRGTKKRYDRE[αMeF]LL[Ac5c]FQF
The molecule B3 registered a ΔH in data set [6] of -12.4. The ΔS in data set [7] was -5.69 Cal mol-1K-1. The Kd in [8] was 0.0102 µM. For the same molecule, the “thermal shift in the Tm of eIF4E greater than that of the TAT_eIF4G1 peptide” value in data set [9] was approximately 0.82 ° C.

B4: Tr2_AIB1 peptide (peptide)
peptide: Y[Aib]REFLLGFQF
modifications: not fully specified (C-terminus)
In the case of B4, the “ΔT (°C)” value in data set [3] stood at 1.32 °C. In addition, the Kd in [4] is 29.8 µM.

B5: Tr2_AIB3 peptide (peptide)
peptide: YDREFLLXFQF
modifications: not fully specified; G631 replaced with aminoisobutyric acid (Aib)
Regarding B5, the “ΔT (°C)” value in [3] is 5.42 °C. For the same molecule, the Kd in [4] is 3.05 µM.

B6: Tr2_ALA_A5C1 (Tr2_AIB3_A5C with alanine at position 625) (peptide)
peptide: YAREFLL[Ac5c]FQF
modifications: not fully specified (C-terminus)
For B6, in data set [3], the “ΔT (°C)” value turned out to be 5.02 °C. Besides, the Kd in data set [4] was 0.76 µM.

B7: Tr2_ALA_A5C4 (Tr2_AIB3_A5C with F628 replaced with alanine) (peptide)
peptide: YDREALL[Ac5c]FQF
modifications: not fully specified (C-terminus)
notes: 29=625, 30=626, 31=627, 34=633)
For the molecule B7, the “ΔT (°C)” value in [3] is 3.72 °C. Further, the Kd in data set [4] is 8.09 µM.

B8: Tr2_ALA_A5C5 (Tr2_AIB3_A5C with F632 replaced with alanine) (peptide)
peptide: YDREFLL[Ac5c]AQF
modifications: not fully specified (C-terminus)
In the case of B8, in data set [3], the “ΔT (°C)” value stood at 3.65 °C. Besides, in [4], the Kd is 8.4 µM.

B9: Tr2_ALA_A5C6 (Tr2_AIB3_A5C with alanine at position 633) (peptide)
peptide: YDREFLL[Ac5c]FAF
modifications: not fully specified (C-terminus)
In the case of B9, the “ΔT (°C)” value in data set [3] was 6.72 °C. In data set [4], the Kd is 1.37 µM.

B10: Tr2_ALA_A5C3 (Tr2_AIB3_A5C with alanine at position 627) (peptide)
peptide: YDRAFLL[Ac5c]FQF
modifications: not fully specified (C-terminus)
Regarding B10, the “ΔT (°C)” value in [3] came to 4.22 °C. For the same molecule, the Kd in [4] is 1.22 µM.

B11: Tr2_ALA_A5C7 (Tr2_AIB3_A5C with F634 replaced with alanine) (peptide)
peptide: YDREFLL[Ac5c]FQA
modifications: not fully specified (C-terminus)
With B11, the “ΔT (°C)” value in data set [3] was determined as 5.48 °C. For the same molecule, the Kd in data set [4] is 2.9 µM.

B12: Tr2_ALA_A5C2 (Tr2_AIB3_A5C with R626 replaced with alanine) (peptide)
peptide: YDAEFLL[Ac5c]FQF
modifications: not fully specified (C-terminus)
As for B12, in [3], the “ΔT (°C)” value was found to be 2.69 °C. The Kd in [4] is 14.3 µM.

B13: Tr2_me5-1 peptide (YDRE*LL5FQF) (peptide)
peptide: YDREXLLXFQF
modifications: not fully specified; Cα-methyl-L-phenylalanine at position 628; 1-aminocyclopentanecarboxylic acid (A5C) at position 631
notes: also called truncated modified Tr2_me5-1 peptide
B13: the Kd was 0.146 µM in data set [10] and 0.36 µM in data set [4]. For the same molecule, the “ΔT (°C)” value in data set [3] is 8.8 °C. For the same molecule, the binding enthalpy in data set [11] is -16.1 kcal/mol. In data set [12], the “-TΔS” value is -6.89.

B14: Tr2 peptide (truncated 11mer eIF4G1 peptide) (peptide)
peptide: YDREFLLGFQF
modifications: not fully specified (C-terminus)
notes: also called truncated Tr2
Take B14: the results for the Kd in data set [10], in data set [13] and in data set [4] were 1.04 µM, 1.01 µM and 5.96 µM, respectively. Moreover, in data set [3], the “ΔT (°C)” value came out at 4.2 °C. The same molecule came in with a binding enthalpy in [11] of -10.9 kcal/mol. The “-TΔS” value in data set [12] is -2.91.

B15: Tr2_AIB3_ALA (peptide)
peptide: YDREFLLAFQF-NH2
modifications: not fully specified
Consider B15, for which the “ΔT (°C)” value in data set [3] turned out to be 5.6 °C. Further, the Kd in [4] is 2.55 µM.

B16: 11mer (control) peptide with the conserved tyrosine mutated to alanine (peptide)
peptide: ADREFLLGFQF
modifications: not fully specified (C-terminus)
Turning to B16, in [14], the binding result is “no binding (tested: 200 µM)” and the “ΔT (°C)” value stood at 0.65 °C.

B17: Tr2_AIB3_A3C (peptide)
peptide: YDREFLLXFQF
modifications: position 631 (printed '3') = 1-amino cyclopropanoic acid; C-terminal amide (-NH2)
In the case of B17, the “ΔT (°C)” value in [3] worked out at 5.67 °C. Also, in data set [4], the Kd was 2.5 µM.

B18: Tr2_me5_3 (peptide)
peptide: YDREFLLXFQX
modifications: position 631 (printed '5') = 1-amino cyclopentanoic acid; position 634 (printed '*') = Cα-Me-L-Phenylalanine; C-terminal amide (-NH2)
Take B18: in data set [3], the “ΔT (°C)” value was 5.8 °C. Besides, in [4], the Kd was 2.4 µM.

B19: Tr1 (peptide)
peptide: KKRYDREFLL-NH2
For the molecule B19, the “ΔT (°C)” value in data set [14] was 1.7 °C. Moreover, the Kd in data set [15] is 50.2 µM.

B20: eIF4G1_me5 peptide (KKRYDRE*LL5FQF) (peptide)
peptide: KKRYDRE[αMeF]LL[Ac5c]FQF
modifications: not fully specified (C-terminus)
notes: also called modified 14mer eIF4G1_me5 peptide; helically stabilized peptide
B20 gave a Kd in data set [10] of 0.00943 µM. Further, the “ΔT (°C)” value in data set [3] turned out to be 14.6 °C. The Kd in data set [4] was 0.007 µM. In [11], the binding enthalpy is -14.4 kcal/mol and the “ΔΔG against the template peptide (eIF4G1)” value was approximately 1.6 kcal/mol. Moreover, in data set [12], the “-TΔS” value was -3.69. In addition, the “fold more potent than the template peptide (eIF4G1)” value in data set [16] is approximately 15.7 fold. Moreover, in data set [9], the “fold increase in thermal shift over the original 14-mer eIF4G1 peptide” value turned out to be 1.7 fold and the “thermal shift in the melting temperature of eIF4E” value is approximately 14 ° C.

B21: Tr3 (peptide)
peptide: YDREFLLGFQ-NH2
Regarding B21, in data set [14], the “ΔT (°C)” value amounted to 2.25 °C. For the same molecule, the Kd in data set [15] was 35.2 µM.

B22: TAT_eIF4G1 peptide (peptide)
peptide: YGRKKRRQRRRGTKKRYDREFLLGFQF
notes: also called eIF4G1 TAT fused peptide
In [6], B22 returned a ΔH of -5.52. For the same molecule, in data set [11], the “fold lower Kd than the shorter parent peptide (eIF4G1)” value was approximately 2.7 fold. In addition, the ΔS in data set [7] was 15 Cal mol-1K-1. Further, the Kd in [8] came to 0.0562 µM.

B23: Tr2_AIB3_A4C (peptide)
peptide: YDREFLLXFQF
modifications: position 631 (printed '4') = 1-amino cyclobutanoic acid; C-terminal amide (-NH2)
In the case of B23, the “ΔT (°C)” value in data set [3] was found to be 5.8 °C. In addition, the Kd in data set [4] is 2.35 µM.

B24: Tr2_AIB2 peptide (peptide)
peptide: YDR[Aib]FLLGFQF
modifications: not fully specified (C-terminus)
With B24, the binding result in data set [3] is on record as “no binding (tested: 100 µM)”.
